Experimental data taken from US7189694B2, “Inhibitors of autophosphorylation protein kinases” (University of Florida Research Foundation, Inc., priority 2003, dated 2007).
Ends that are not written are not given here.

Columns and labels:
[1] = molecular target: T1, JAK2 WT peptide (JAK2 autophosphorylation site 1001LPQDKEYYKVKEP) (Homo sapiens, UniProt O60674); assay: ELISA binding of biotinylated JAK2 WT peptide to solid-phase peptides; details: FIG. 1A; ELISA, peptides coated on 96-well plates
T1 construct: made in house; host or cells: chemical synthesis (Fmoc)
Procedure: Binding assays: For ELISA binding assays Tkip and other peptides to be tested were bound to 96-well plates in 0.1 M carbonate binding buffer (pH 9.6) at a final concentration of 3 μg/well (50 μl). Wells were then washed three times with wash buffer containing 0.9% NaCl and 0.05% tween-20 in PBS and blocked with 2% gelatin and 0.05% tween-20 in PBS for 1 h at room temperature. Wells were then washed three times with wash buffer and incubated with various concentrations of biotinylated JAK2 WT peptide and biotinylated P-JAK2 WT peptide for 1 h at room temperature in blocking buffer. Following incubation, wells were washed five times with wash buffer to remove any unbound biotinylated peptides. Bound biotinylated peptides were detected by incubation with a 1:500 dilution of NEUTRAVIDIN biotin binding-protein conjugated with horseradish peroxidase (Molecular Probes, Eugene, Oreg.) in blocking buffer for 1 h at room temperature. Wells were then washed five times with wash buffer and developed with a solution of o-phenylenediamine (OPD) in stable peroxidase buffer (Pierce, Rockford, Ill.). The assay was stopped with the addition of 2 M H2SO4 (50 μl) to each well. Absorbance was measured using a 450 microplate reader (Bio-rad, Hercules, Calif.) at 490 nm. Control experiments were carried out as described above in the absence of immobilized peptides.

[2] = molecular target: T2, recombinant human JAK2 (Homo sapiens, UniProt O60674); assay: In vitro JAK2 kinase assay (32P, SDS-PAGE, autoradiography); assay type: biochemical; details: peptide at 50 μM
T2 construct: purchased Upstate Biotechnology, Lake Placid, N.Y
Procedure: Determination of JAK2 autophosphorylation activity was performed in reaction mixtures containing recombinant human JAK2 immobilized on agarose beads (Upstate Biotechnology, Lake Placid, N.Y.), 1 μCi/μl of [^32P]γ-ATP (Amersham Biosciences, Piscataway, N.J.), and either Tkip or JAK 2 WT peptide incubated in kinase buffer (10 mM HEPES [pH 7.4], 50 mM sodium chloride, 0.1 mM sodium orthovanadate, 5 mM magnesium chloride, 5 mM manganese chloride). JAK2 kinase assays were performed in 35 μL reaction volumes containing 10.5 μL Tkip, 20 μL JAK2 agarose beads, 1 μL sIFNGR-1, and 3.5 μL [^32P]γ-ATP incubated at 30° C. for 30 min with intermittent agitation. […] EGFR, VEGFR, and JAK2 kinase reactions were terminated with the addition of 5 μl 6×SDS sample buffer (0.5 M Tris-HCl [pH 6.8], 36% glycerol, 10% SDS, 9.3% DTT, 0.012% bromophenol blue). Incubation of JAK2 agarose beads in SDS sample buffer (100° C.) was designed to elute bound proteins from the agarose beads. The reaction mixtures were separated on a 10% SDS polyacrilamide gel. Autoradiography was used to determine phosphorylation activity.

[3] = test system: biotinylated JAK2 WT peptide binding to Tkip peptide; assay: ELISA peptide competition for biotinylated JAK2 WT binding to Tkip; parameters: species or system human; details: FIG. 1B; unlabeled competitor peptide
Procedure: Peptide competition experiments were conducted using peptides derived from the JAK tyrosine kinase family, vascular endothelial growth factor receptor (VEGFR), and cyclin dependent kinase (CDK) to compete with biotinylated JAK2 WT peptide for binding to Tkip. Binding of biotinylated JAK2 WT was determined as above, except that following Tkip peptide immobilization, washing, and blocking in blocking buffer for 1 hr at room temperature unlabeled competitors were added to wells and incubated for 30 min at varying concentrations before biotinylated JAK2 WT peptide was incubated for 1 hr in each well to determine the extent of competition with unlabeled peptides. Detection and analysis of binding was carried out as described above.

[4] = test system: MHC class I expression on WISH cells; assay: Flow cytometry of IFN-γ induced MHC class I expression on WISH cells; assay type: cell-based, human
Procedure: Flow Cytometry: WISH fibroblast cells (2×10^6) were incubated for 48 h with media alone, 25 μM MuIFNγ(95–125) peptide, or lipophilic Tkip (LT) at varying concentrations (1 μM, 10 μM, 25 μM) in the presence or absence of 5000 units/ml IFN-γ in 6-well culture plates at 37° C. in a 5% CO2 atmosphere. Following incubation, cells were washed twice with PBS and harvested by trypsinization into two sets of 5-ml round bottom polystyrene tubes (Fisher, Pittsburgh, Pa.) and washed twice with PBS. For cell surface staining a direct immunofluorescence protocol was employed. […] The fluorescent-conjugated isotype antibody was used to determine background fluorescence by identifying nonspecific binding of the monoclonal antibody to WISH cells. […] WISH fibroblast cells were finally resuspended in 500 μl of PBS and analyzed on a FACScan fluorescence-activated cell sorter (Becton Dickinson, San Jose, Calif.). […] The red fluorescence of R-PE was excited at 488 nm. […] The fluorescence intensity of the negative controls were subtracted from the mean fluorescence for the R-PE labeled cells. […] Flow cytometry data were analyzed using CellQuest analysis software (Becton Dickinson, San Jose, Calif.).

T2 sequence (O60674 whole entry): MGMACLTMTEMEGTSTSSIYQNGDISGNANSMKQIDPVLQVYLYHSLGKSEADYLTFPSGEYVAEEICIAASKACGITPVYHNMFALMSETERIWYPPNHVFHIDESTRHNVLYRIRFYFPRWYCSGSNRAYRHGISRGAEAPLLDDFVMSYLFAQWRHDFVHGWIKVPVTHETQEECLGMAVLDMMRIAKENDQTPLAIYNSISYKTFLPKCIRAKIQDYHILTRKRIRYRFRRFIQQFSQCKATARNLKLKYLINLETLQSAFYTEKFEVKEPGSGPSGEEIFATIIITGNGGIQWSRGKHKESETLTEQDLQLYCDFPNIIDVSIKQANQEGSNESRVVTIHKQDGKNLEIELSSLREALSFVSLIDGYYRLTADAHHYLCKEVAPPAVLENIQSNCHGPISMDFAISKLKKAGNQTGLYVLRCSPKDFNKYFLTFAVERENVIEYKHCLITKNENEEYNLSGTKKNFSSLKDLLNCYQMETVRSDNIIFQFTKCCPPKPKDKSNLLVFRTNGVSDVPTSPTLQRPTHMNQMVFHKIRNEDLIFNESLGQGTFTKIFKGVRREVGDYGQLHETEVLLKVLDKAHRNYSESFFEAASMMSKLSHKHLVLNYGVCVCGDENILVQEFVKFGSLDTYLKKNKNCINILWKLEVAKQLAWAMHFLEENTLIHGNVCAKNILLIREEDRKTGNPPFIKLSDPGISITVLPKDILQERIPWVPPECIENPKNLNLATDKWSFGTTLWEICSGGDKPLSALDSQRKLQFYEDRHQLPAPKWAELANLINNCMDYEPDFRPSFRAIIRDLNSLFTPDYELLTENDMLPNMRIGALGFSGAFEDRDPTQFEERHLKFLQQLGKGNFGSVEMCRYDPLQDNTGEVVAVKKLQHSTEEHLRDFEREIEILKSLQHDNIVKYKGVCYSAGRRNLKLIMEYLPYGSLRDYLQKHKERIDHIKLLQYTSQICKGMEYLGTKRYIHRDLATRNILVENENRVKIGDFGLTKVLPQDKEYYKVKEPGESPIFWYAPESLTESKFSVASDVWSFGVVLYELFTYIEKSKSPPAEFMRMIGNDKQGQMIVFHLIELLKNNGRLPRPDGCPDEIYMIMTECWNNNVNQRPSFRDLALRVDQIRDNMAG

Row | Substance | binding of biotinylated JAK2 WT peptide to solid-phase peptide [1] | inhibition of biotinylated JAK2 WT peptide binding to Tkip peptide [3] | other results
1 | AKFEVNNPQVQRQAFNELIRVVHQLLPESSL (amino acid sequence of a peptide used for control purposes) [IFN-γ95–125] | negligible | – | –
2 | EMLVLLMALKLLA (amino acid sequence of a peptide that can be used according to the present invention) | – | – | inhibition of JAK2 autophosphorylation [2]: inhibited autophosphorylation of JAK2 (lane 7 of FIG. 4, upper panel), although it was not as effective as the Tkip peptide
3 | KTEGVPSTAIREISLLKELNH (amino acid sequence of a peptide used for control purposes) [CDK 41–61, cyclin-dependent kinase, cyclin box peptide 41–61] | negligible | neither CDK 41–61 nor VEGFR 1208–1222, inhibited | –
4 | LPQDKEYYKVKEP (amino acid sequence of a peptide used for control purposes) [JAK2 WT, JAK2 autophosphorylation site peptide, residues 1001-1013; control peptide, reference compound] | – | inhibited | inhibition of JAK2 autophosphorylation [2]: had no effect; inhibition of JAK2 phosphorylation of IFNGR-1 [2]: had no effect
5 | NGVLFLMIFHFLG (amino acid sequence of a peptide that can be used according to the present invention) | – | – | inhibition of JAK2 phosphorylation of IFNGR-1 [2]: did inhibit
6 | SSDVRYVNAFKFM (amino acid sequence of a peptide used for control purposes) [VEGFR 1208–1222, vascular endothelial growth factor receptor autophosphorylation peptide] | negligible | neither CDK 41–61 nor VEGFR 1208–1222, inhibited | –
7 | control lipophilic peptide (IFN-γ 95–125): lipophilic irrelevant peptide MuIFN-γ(95–125) (AKFEVNNPQVQRQAFNELIRVVHQLLPESSL; also: lipophilic group, site not given here; UniProt P01580 117-147, looked up, fragment) [reference compound] | – | – | effect on IFN-γ upregulation of MHC class I expression ([4]; 10 μM or 25 μM Tkip (control 25 μM), 5000 U/ml human IFN-γ, 48 h): had no effect
8 | human IFN-γ: human gamma interferon cytokine used as stimulus | – | – | increase in MHC class I as per FACS analysis ([4]; 5000 U/ml): over 3 fold
